According to US20150218248A1:

Target: HLA-A2 molecule
Assay: HLA class I stabilization assay, RMA-S/A2 cells, peptide 10 µg/ml, flow cytometry with BB7.2

For MQLMPFGCLL [T790M-5], which HLA binding capability (%) (MFI increase) is on record?
The HLA binding capability (%) (MFI increase) was 267%.

Which HLA binding capability (%) (MFI increase) does the source give for LIMQLMPFGCL [T790M-7] here?
Its HLA binding capability (%) (MFI increase) is 31.2%.

Which HLA binding capability (%) (MFI increase) does the source give for IMQLMPFGCLL [T790M-8] here?
The HLA binding capability (%) (MFI increase) was 69.3%.
